The target in assay [1] is mock-ribosylated histone H1 (adsorbed to microwells, no NAD+). The experiment in a line: microwell plate binding assay (absorbance at 450 nm). The note with it: 0 μM NAD+, read off a plot.
Assay [2] addresses ribosylated histone H1 (adsorbed to microwells, ribosylated with PARP1 and NAD+). Described as above. The following applies: read off a plot.
Assay [3] has as its target T1, ribosylated PARP1 (adsorbed to microwells, ribosylated with PARP1 and NAD+) (human, UniProt P09874 1-1014, poly (ADP-ribosyl)ated by PARP1 in the presence of 1–50 μM NAD+; sites not stated).
T1 construct: PARP1, poly (ADP-ribose) polymerase 1; 'recombinant, human, full length' is printed for the 5 nM PARP1 of the reaction; Species and form are printed for the PARP1 used as enzyme; I took the adsorbed PARP1 to be the same preparation; also called PARP1 +NAD+; autoribosylated PARP1; source: recombinant
The experiment in a line: ELISA; PARP1, histone H1 or BSA adsorbed to microwells (0.1 mg/ml in PBS), mock-ribosylated (no NAD+) or ribosylated with 5 nM PARP1 and 1–50 μM NAD+; 25 nM His-XRCC1 in 20 mM Tris pH7.5, 130 nM NaCl, 30 min on ice; detected with anti-His Mab and HRP secondary, A450. The note with it: both partners purified. A general note: An ELISA detects its analyte on a solid surface through an enzyme-linked reagent.

T1 sequence (P09874 whole entry): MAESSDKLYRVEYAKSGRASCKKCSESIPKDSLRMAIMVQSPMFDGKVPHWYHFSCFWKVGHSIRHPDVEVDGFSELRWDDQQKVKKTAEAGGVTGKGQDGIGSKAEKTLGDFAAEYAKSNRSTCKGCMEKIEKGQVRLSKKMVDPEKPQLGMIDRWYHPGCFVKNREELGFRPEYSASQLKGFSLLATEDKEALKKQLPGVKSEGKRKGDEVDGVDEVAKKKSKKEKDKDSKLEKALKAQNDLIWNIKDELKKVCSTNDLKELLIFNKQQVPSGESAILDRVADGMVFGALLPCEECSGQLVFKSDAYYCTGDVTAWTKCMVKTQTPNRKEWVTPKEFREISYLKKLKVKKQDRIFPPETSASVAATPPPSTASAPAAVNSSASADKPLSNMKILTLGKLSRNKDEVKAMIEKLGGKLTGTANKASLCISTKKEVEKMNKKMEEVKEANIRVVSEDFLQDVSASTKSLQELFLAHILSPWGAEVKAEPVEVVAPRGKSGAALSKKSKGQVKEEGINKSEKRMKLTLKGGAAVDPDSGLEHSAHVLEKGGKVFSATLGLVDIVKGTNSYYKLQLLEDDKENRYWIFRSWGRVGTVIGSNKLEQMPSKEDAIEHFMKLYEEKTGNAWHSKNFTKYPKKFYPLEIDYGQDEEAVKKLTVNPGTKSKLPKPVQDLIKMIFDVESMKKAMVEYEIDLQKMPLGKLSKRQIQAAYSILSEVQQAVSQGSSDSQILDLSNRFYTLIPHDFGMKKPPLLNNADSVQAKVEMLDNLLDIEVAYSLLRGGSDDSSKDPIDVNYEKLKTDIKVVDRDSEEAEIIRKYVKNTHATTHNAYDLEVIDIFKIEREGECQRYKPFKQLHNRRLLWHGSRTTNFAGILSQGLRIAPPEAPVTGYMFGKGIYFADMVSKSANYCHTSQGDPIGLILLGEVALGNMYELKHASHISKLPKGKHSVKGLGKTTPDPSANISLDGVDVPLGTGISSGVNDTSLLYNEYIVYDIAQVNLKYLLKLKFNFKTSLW

In the case of “His-XRCC1^161–406 (from UniProt P18887) R335A; K369A”, the response in assay [1] (adsorbed histone H1 mock-ribosylated, parent: est. 0.11) was found to be 0.1 Abs 450nm; in assay [1] (left panel, calf thymus histone mock-ribosylated, no competitor, parent: est. 0.10), 0.12 Abs 450nm; in assay [2] (adsorbed histone H1 ribosylated with 1 μM NAD+, parent: est. 1.7) it was 0.12 Abs 450nm; in assay [2] (adsorbed histone H1 ribosylated with 10 μM NAD+, parent: est. 2.1) it was 0.78 Abs 450nm; in assay [2] (adsorbed histone H1 ribosylated with 50 μM NAD+, parent: est. 2.2), 1.2 Abs 450nm; in assay [2] (left panel, calf thymus histone ribosylated with 0.5 μM NAD+, no competitor, parent: est. 0.82) it was 0.11 Abs 450nm.

B1: His-XRCC1^161–406 (domain or fragment, human, UniProt P18887 161-406, looked up)
chain: PSQKVTVTKLGQFRVKEEDESANSLRPGALFFSRINKTSPVTASDPAGPSYAAATLQASSAASSASPVSRAIGSTSKPQESPKGKRKLDLNQEEKKTPSKPPAQLSPSVPKRPKLPAPTRTPATAPVPARAQGAVTGKPRGEGTEPRRPRAGPEELGKILQGVVVVLSGFQNPFRSELRDKALELGAKYRPDWTRDSTHLICAFANTPKYSQVLGLGGRIVRKEWVLDCHRMRRRLPSQRYLMAGP
notes: Vector pTWO-E (from pET-17b) adds an N-terminal His6 tag that can be cleaved by rhinovirus 3C; also called wild-type histidine-tagged fragment of human XRCC1 spanning the conserved BRCT1 domain; source: E. coli Rosetta2 (DE3)pLysS, purified (Talon resin, heparin column); not shown: His6, N-terminal, kept
On to B1, for which the binding result in assay [3] was “binds”.

Values taken from article PMC4538820, “The XRCC1 phosphate-binding pocket binds poly (ADP-ribose) and is required for XRCC1 function” (Nucleic Acids Research, 2015).
